Publication PMC8458281, “Computational modeling and experimental validation of the EPI-X4/CXCR4 complex allows rational design of small peptide antagonists” (Communications Biology, 2021)
Blank lines part the entries; values can stand above or below the molecule they belong to.

Key:
CXCR4 V112A = assay: 12G5 antibody competition, 293T cells transfected with CXCR4 V112A; format: binding, human; settings: IC50 on CXCR4 V112A relative to wt
Method: Fig. 4 The interactions of EPI-X4 and the EPI-X4 derivatives WSC02 and JM#21 with point-mutated CXCR4 were assessed by an antibody competition assay. Amino acid substitutions were introduced in the sequence of CXCR4 by site-directed mutagenesis, cloned into an IRES-eGFP expression vector, and transfected into 293 T cells. Afterward, cells were incubated with serially diluted EPI-X4 (a, b), WSC02 (c, d), or JM#21 (e, f) in presence of a constant concentration of CXCR4 specific antibody (clone 12G5). After 2 h, bound antibody was analyzed by flow cytometry. a, c, e) Representative dose-dependent replacement of 12G5 antibody by peptides. b, d, f) IC50 values were calculated by nonlinear regression. Shown are data derived from at least three individual experiments ± SEM. IC50 values were set to 1000 µM (EPI-X4 and WSC02) or 100 µM (JM#21) if the value exceeds the maximally used concentration. *p ≤ 0.05, ***p ≤ 0.001 (one-way ANOVA for comparison with wt). For IC50 values see Table 1. For all binding curves see also Fig. S8.
Mutated CXCR4 constructs were transfected into 293 T cells that have a very low endogenous expression level of wild-type CXCR4. Transfected cells were then analyzed for CXCR4 surface expression (Fig. S5a) and EPI-X4 binding using a flow cytometry-based antibody competition assay (Fig. S5b, c)[33]. […]

[1] = target: T1, C-X-C motif chemokine receptor 4 (CXCR4) on SupT1 cells (human (endogenous in SupT1), UniProt P61073 1-352); assay: flow cytometry on cells; 12G5 antibody competition on SupT1 cells; peptides in PBS with APC-conjugated 12G5 at a concentration close to its EC50, 4 °C, 2 h; MFI normalized to PBS control; IC50 by nonlinear regression; settings: one partner purified
T1 construct: CXCR4 as expressed on SupT1 cells; source: endogenous, on SupT1 cells
T1 sequence (P61073 whole entry): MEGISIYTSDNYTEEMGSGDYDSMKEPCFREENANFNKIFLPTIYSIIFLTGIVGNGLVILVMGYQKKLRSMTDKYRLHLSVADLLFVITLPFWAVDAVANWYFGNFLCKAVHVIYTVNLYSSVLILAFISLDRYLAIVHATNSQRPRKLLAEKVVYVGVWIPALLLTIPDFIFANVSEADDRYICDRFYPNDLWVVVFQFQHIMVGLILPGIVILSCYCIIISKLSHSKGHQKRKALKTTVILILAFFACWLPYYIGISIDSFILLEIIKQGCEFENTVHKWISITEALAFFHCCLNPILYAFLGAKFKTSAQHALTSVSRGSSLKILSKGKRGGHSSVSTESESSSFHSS

CXCR4 D97T = target: T2, CXCR4 D97T (human, UniProt P61073-1 1-352, D97T); assay: flow cytometry on cells; 12G5 antibody competition on 293T cells transiently transfected with CXCR4 wt or mutants (IRES-eGFP vector), eGFP-positive cells gated; serially diluted peptide with a constant concentration of CXCR4 antibody clone 12G5, 2 h; bound antibody read; IC50 by nonlinear regression; settings: one partner purified
T2 construct: human CXCR4, isoform 1 or b; source: 293T cells, transiently transfected (pcDNA3.1 CXCR4-IRES-eGFP), on cells
T2 sequence (P61073 whole entry D97T, canonical isoform): as the sequence (P61073 whole entry) above, with D97T counted along it

CXCR4 V112L = target: T3, CXCR4 V112L (human, UniProt P61073-1 1-352, V112L); assay: as above; settings: one partner purified
T3 construct: human CXCR4, isoform 1 or b; source: 293T cells, transiently transfected (pcDNA3.1 CXCR4-IRES-eGFP), on cells
T3 sequence (P61073 whole entry V112L, canonical isoform): as the sequence (P61073 whole entry) above, with V112L counted along it

CXCR4 D187E = target: T4, CXCR4 D187E (human, UniProt P61073-1 1-352, D187E); assay: as above; settings: one partner purified
T4 construct: human CXCR4, isoform 1 or b; source: 293T cells, transiently transfected (pcDNA3.1 CXCR4-IRES-eGFP), on cells
T4 sequence (P61073 whole entry D187E, canonical isoform): as the sequence (P61073 whole entry) above, with D187E counted along it

[2] = target: T5, CXCR4 D97E + V112A + L41A (human, UniProt P61073-1 1-352, L41A | D97E | V112A); assay: as above; settings: one partner purified
T5 construct: human CXCR4, isoform 1 or b; also called L41A plus D97E plus V112A; source: 293T cells, transiently transfected (pcDNA3.1 CXCR4-IRES-eGFP), on cells
T5 sequence (P61073 whole entry L41A/D97E/V112A, canonical isoform): as the sequence (P61073 whole entry) above, with L41A, D97E, V112A counted along it

Molecule: IVRWSKKVPCVS [WSC02, first-generation C-terminally truncated 12-mer derivative of EPI-X4 with four substitutions]
Fold change (CXCR4 V112A): 0.6

IC50 [1]: 2.39 µM | IC50 (CXCR4 D97T): > 1000 µM | IC50 (CXCR4 V112L): 41.1 µM | IC50 (CXCR4 D187E): 8.52 µM | IC50 [2]: 48.4 µM
B1: EPI-X4 (Alb408-423) (peptide)
peptide: LVRYTKKVPQVSTPTL
notes: source: synthetic peptide (Fmoc solid-phase synthesis, HPLC-purified)
